Assays:
[1] = tested on: cutaneous allergic reactions following the intradermal administration of antigen; test: LPR skin test, intradermal challenge with dust mite antigen; type: in vivo, human; conditions: IL-1 receptor 1.65 mg/ml injected with dust mite antigen, versus allergen without receptor
Experimental: The LPR skin test is performed by interadermally injecting subjects on the forearm with test solution. The test solution contains the challenging antigen. Controls receive test solution without challenging antigen. The injection site is thereafter examined at intervals up to 96 hours. The diameters of the reactions are measured in two perpendicular directions and the characteristics are noted at different times.
The LPR gradually subsides over a 24 hour period. At the peak, the injection site is characterized by erythema, warmth, edema, pruritus and/or tenderness. The LPR is more extensive in area and produces greater discomfort then the early phase reaction.
Dust mite antigen is used (D. pteronyssinus; Allergy Laboratories of Ohio; 30,000 AU/ml). The soluble IL-1 receptor (Immunex Corp.; Seattle, Wash.) stock concentration is 10 mg/ml. Eight test solutions are prepared for intradermal injections (0.01 ml each) using TB syringes and disposable needles. Four intradermal test sites are used on each forearm.
Two test solutions are controls. […] Three concentrations of the antigen are evaluated (final concentrations: 1:500,000, 1:200,000, and 1:100,000).
The area of the wheal reaction is marked on the skin with a ball-point pen. […] The wheal reactions are then calculated by counting the squares within the pen-marked area.

[2] = tested on: conjunctival allergic response to ryegrass allergen; test: conjunctival provocation test (CPT) with ryegrass allergen; type: in vivo, human
Experimental: Ten ryegrass-sensitive patients with hay fever conjunctivitis and ten nonallergic subjects without ocular disease are challenged by weekly topical administration of ryegrass allergen for 4 weeks with 10 μl of four different allergen doses (10,000, 32,000, 100,000, and 320,000 BU/ml of ryegrass allergen) (Pharmalgen, Pharmacia Diagnostics AB, Uppsala, Sweden). Albumin diluent (Pharmacia), is used to dilute the allergen. Five of the patients and five of the nonallergic subjects are given allergen premixed with IL-1 receptor. The other five patients and subjects are given allergen without IL-1receptor. Importantly, the allergic patients and control subjects have no clinical symptoms before ocular provocation. […]
The challenge solution is administered to the contralateral eye in both patients and control subjects. Clinical conjunctival evaluation with tear-fluid cytology is assessed in both eyes before administration of allergen or buffer 20 minutes, one hour, and six hours after challenge. In both the allergic patients and control subjects, the following ocular symptoms, both subjective and objective, are evaluated by a physician: hyperemia, edema, tearing, and itching. Each symptom is scored from 0 to 4+ and graded as follows: 0—absent; 1+—mild; 2+—moderate; 3+—severe; and 4+—very severe. […]

[3] = tested on: early and late phase response in nasal tissue of patients with seasonal allergic rhinitis; test: nasal challenge with ragweed or mixed-grass pollen antigen; type: in vivo, human; conditions: prechallenge nasal lavages with IL-1 receptor versus buffer, 1000 PNU antigen, late and rechallenge reactions
Excerpt: Sixteen patients with seasonal allergic rhinitis due to grass or ragweed pollens are selected.
Ragweed and mixed-grass pollen extracts (timothy, orchard, June and meadow grass in a ratio of 3:2:3:2) are purchased from Greer Laboratories (Lenoir, N.C.); lactated Ringer's solution and oxymetazoline hydrochloride (Afrin, Schering, Kenilworth, N.J.) are purchased from the hospital pharmacy.
At the time of the challenge, oxymetazoline hydrochloride is sprayed into the nose (two sprays per nostril) of all patients to prevent mucosal congestion, which would interfere with the collection of nasal secretions.
Eight of the sixteen patients receive four prechallenge nasal lavages with IL-1 receptor diluted in buffer; the remaining […] receive lavages with buffer only. Thereafter, challenges with 1000 PNU of antigen are undertaken.
The patients maintain a symptom score sheet during the challenge procedure. In addition to the number of sneezes, a six-point scale from 0 to 5 (with 0 equal to no symptoms and 5 equal to severe symptoms) is used to assess nasal secretion, blockage, and itching. The degree of blockage is, of course, underestimated on those score sheets because of the pretreatment with oxymetazoline hydrochloride. The presence or absence of symptoms correlates with the presence or absence of mediators during the late reaction.

[4] = tested on: late phase reaction in lung tissue of patients with allergic bronchial asthma; test: allergen inhalation (dust mite extract) with bronchoalveolar lavage; type: in vivo, human; conditions: allergen premixed with IL-1 receptor versus allergen alone
Experimental: In this example, twenty patients with documented allergic bronchial asthma participate. Allergen inhalation is performed by inhaling dust mite extract (see Example 1, above) at 15 minute intervals using a Wiesbadnener Doppelspray (8 L/min air flow, nebulizer output approximately 0.2 ml/min). Ten patients received the allergen premixed with IL-1 receptor; the other ten patients received the allergen alone.
Eosinophil granule major basic protein levels are markedly elevated in the lavage fluid of these asthmatic patients. Peripheral blood eosinophil counts decrease during late phase responses to antigen challenge at the time eosinophil levels in the pulmonary tissues increases, presumably because of margination and emigration in the lungs.

alloreactivity in vivo = conditions: systemic administration; cited from earlier work
[5] = tested on: experimental autoimmune encephalomyelitis; conditions: interperitoneal administration; cited from earlier work

B1: IL-1 receptor: soluble IL-1 receptor (Immunex Corp.; Seattle, Wash.), stock concentration 10 mg/ml (protein, UniProt P14778 18-336, looked up)
extracellular domain: LEADKCKEREEKIILVSSANEIDVRPCPLNPNEHKGTITWYKDDSKTPVSTEQASRIHQHKEKLWFVPAKVEDSGHYYCVVRNSSYCLRIKISAKFVENEPNLCYNAQAIFKQKLPVAGDGGLVCPYMEFFKNENNELPKLQWYKDCKPLLLDNIHFSGVKDRLIVMNVAEKHRGNYTCHASYTYLGKQYPITRVIEFITLEENKPTRPVIVSPANETMEVDLGSQIQLICNVTGQLSDIAYWKWNGSVIDEDDPVLGEDYYSVENPANKRRSTLITVLNISEIESRFYKHPFTCFAKNTHGIDAAYIQLIYPVTNFQK
modifications: extracellular domain
notes: soluble IL-1 receptor (Immunex Corp; Seattle, Wash.), stock concentration 10 mg/ml
[1]; LPR peak between eight and 13 hours
  reduction of wheal at peak of LPR: at least 50%
[1]; twenty minutes post injection
  wheal area, early phase: reduced
[2]; allergic subjects, allergen premixed with IL-1 receptor versus allergen without receptor, all allergen doses
  immediate hypersensitivity ocular reaction (clinical response): significantly reduced response
[2]; highest allergen dose, 6 hours after provocation (late phase), allergic patients
  increase in eosinophils in the tear fluid: not seen
[3]
  nasal symptoms: inhibits
  release of histamine and other inflammatory mediators: inhibits
[4]
  activation of mast cells, infiltration of the tissues by eosinophils and other inflammatory cells, tissue damage and dysfunction (histologic data): markedly suppressed
  eosinophil emigration in the lungs (bronchoalveolar lavage): suppression
Alloreactivity in vivo
  survival of heart allografts: prolonged
[5]
  severity of the disease: reduced
